According to patent US20240200091A1, “USE OF PROTOPORPHYRINOGEN OXIDASE” (BEIJING DABEINONG BIOTECHNOLOGY CO., LTD., priority 2021, published 2024):

Key:
Assay type in all cases: in vivo
Conditions in all cases: 7 DAT, number of plants of 24 per genotype, grades
[1] = tested on: Arabidopsis thaliana T1 plants; experiment: sulfentrazone tolerance of transgenic Arabidopsis thaliana T1 plants (spray, grade of pesticide damage)
Description: (§1) The transformed Arabidopsis thaliana T1 plants were initially selected using glufosinate herbicide. The Arabidopsis thaliana T1 plants (PPO1A) into which the PPO1A nucleotide sequence was introduced, the Arabidopsis thaliana T1 plants (PPO2A) into which the PPO2A nucleotide sequence was introduced, the Arabidopsis thaliana T1 plants (PPO3A) into which the PPO3A nucleotide sequence was introduced, the Arabidopsis thaliana T1 plants (PPO4A) into which the PPO4A nucleotide sequence was introduced, the Arabidopsis thaliana T1 plants (PPO5A) into which the PPO5A nucleotide sequence was introduced, the Arabidopsis thaliana T1 plants (PPO6A) into which the PPO6A nucleotide sequence was introduced, the Arabidopsis thaliana T1 plants (PPO7A) into which the PPO7A nucleotide sequence was introduced, the Arabidopsis thaliana T1 plants (PPO8A) into which the PPO8A nucleotide sequence was introduced, the Arabidopsis thaliana T1 plants (PPO9A) into which the PPO9A nucleotide sequence was introduced, the Arabidopsis thaliana T1 plants (PPO10A) into which the […] nucleotide sequence was introduced, the Arabidopsis thaliana T1 plants (PPO11A) into which the PPO11A nucleotide sequence was introduced, the Arabidopsis thaliana T1 plants (PPO12A) into which the PPO12A nucleotide sequence was introduced, the Arabidopsis thaliana T1 plants (PPO13A) into which the PPO13A nucleotide sequence was introduced, the Arabidopsis thaliana T1 plants (PPO14A) into which the PPO14A nucleotide sequence was introduced, the Arabidopsis thaliana T1 plants (PPO-ATA) into which the PPO-ATA nucleotide sequence was introduced, the Arabidopsis thaliana T1 plants (PPO-APA) into which the PPO-APA nucleotide sequence was introduced, the Arabidopsis thaliana T1 plants (control vector) into which the control vector was introduced, and the wild-type Arabidopsis thaliana plants (CK) (with 24 plants being included in each genotype) (18 days after sowing) were sprayed with oxyfluorfen at three concentrations (180 g ai/ha (one-fold field concentration, 1×), 720 g ai/ha (four-fold field concentration, 4×), and 0 g ai/ha (water, 0×)), saflufenacil at three concentrations (25 g ai/ha (one-fold field concentration, 1×), 100 g ai/ha (four-fold field concentration, 4×), and 0 g ai/ha (water, 0×)), flumioxazin at three concentrations (60 g ai/ha (one-fold field concentration, 1×), 240 g ai/ha (four-fold field concentration, 4×), and 0 g ai/ha (water, 0×), and sulfentrazone at three concentrations (450 g ai/ha (one-fold field concentration, 1×), 900 g ai/ha (two-fold field concentration, 2×), and 0 g ai/ha (water, 0×) to determine the tolerance of Arabidopsis thaliana to the herbicides. After 7 days of spraying (7 DAT), the damage level of each plant caused by the herbicide was evaluated according to the average of the damage levels (%) of plants (the average of the damage levels (%) of plants=the injured leaf area/the total leaf area×[…]), i.e., the grade of pesticide damage: grade 0 means that the growth status of plants is essentially consistent with those sprayed with the blank solvent (water); grade 1 means that the average of the damage levels of plants is less than 10%; grade 2 means that the average of the damage levels of plants is greater than […]; and grade 3 means that the average of the damage levels of plants is 100%. The plants having a growth status falling within grades 0 and 1 are classified as highly resistant plants; those having a growth status falling within grade 2 are classified as poorly resistant plants; and those having a growth status falling within grade 3 are classified as non-resistant plants.

[2] = tested on: Arabidopsis thaliana T1 plants; experiment: saflufenacil tolerance of transgenic Arabidopsis thaliana T1 plants (spray, grade of pesticide damage)
Description: as §1

[3] = tested on: Arabidopsis thaliana T1 plants; experiment: flumioxazin tolerance of transgenic Arabidopsis thaliana T1 plants (spray, grade of pesticide damage)
Description: as §1

[4] = tested on: Arabidopsis thaliana T1 plants; experiment: oxyfluorfen tolerance of transgenic Arabidopsis thaliana T1 plants (spray, grade of pesticide damage)
Description: as §1

Molecule	The grade of pesticide: grade 0 ([1]; sulfentrazone 450 g ai/ha (1×))	The grade of pesticide: grade 1 ([1]; sulfentrazone 450 g ai/ha (1×))	The grade of pesticide: grade 2 ([1]; sulfentrazone 450 g ai/ha (1×))	The grade of pesticide: grade 3 ([1]; sulfentrazone 450 g ai/ha (1×))	The grade of pesticide: grade 0 ([1]; sulfentrazone 900 g ai/ha (2×))	The grade of pesticide: grade 1 ([1]; sulfentrazone 900 g ai/ha (2×))	The grade of pesticide: grade 2 ([1]; sulfentrazone 900 g ai/ha (2×))	The grade of pesticide: grade 3 ([1]; sulfentrazone 900 g ai/ha (2×))	The grade of pesticide damage/plant: grade 0 ([2]; saflufenacil 25 g ai/ha (1×)) [plant]	The grade of pesticide damage/plant: grade 1 ([2]; saflufenacil 25 g ai/ha (1×)) [plant]	The grade of pesticide damage/plant: grade 2 ([2]; saflufenacil 25 g ai/ha (1×)) [plant]	The grade of pesticide damage/plant: grade 3 ([2]; saflufenacil 25 g ai/ha (1×)) [plant]	The grade of pesticide damage/plant: grade 0 ([2]; saflufenacil 100 g ai/ha (4×)) [plant]	The grade of pesticide damage/plant: grade 1 ([2]; saflufenacil 100 g ai/ha (4×)) [plant]	The grade of pesticide damage/plant: grade 2 ([2]; saflufenacil 100 g ai/ha (4×)) [plant]	The grade of pesticide damage/plant: grade 3 ([2]; saflufenacil 100 g ai/ha (4×)) [plant]	The grade of pesticide damage/plant: grade 0 ([3]; flumioxazin 60 g ai/ha (1×)) [plant]	The grade of pesticide damage/plant: grade 1 ([3]; flumioxazin 60 g ai/ha (1×)) [plant]	The grade of pesticide damage/plant: grade 2 ([3]; flumioxazin 60 g ai/ha (1×)) [plant]	The grade of pesticide damage/plant: grade 3 ([3]; flumioxazin 60 g ai/ha (1×)) [plant]	further results
PPO3A: nucleotide sequence encoding microbial protoporphyrinogen oxidase PPO3 (SEQ ID NO:3), Arabidopsis thaliana/soybean common codon usage bias (nucleic acid, PPO3A Nucleotide Sequence) DNA: ATGAGTGCCCTGTTGTTGTATTGTTCAACTGATGGTCAAACCAAGAAGATAATGACACAGATAGCTAATGAACTGAGACAACATGGTTATGAATGTGATGTGCGGGATCTTACTTCTGTTCAACAAAATCTCAATCTTTCAGCTTACAACAAAGTTTTGGTAGGAGCTTCCATAAGATATGGATACTTCAATAAAGCACTTGACAAGTTCATCACGAGGCACCTCTCTCAGTTAAACAACATGCCTTCTGCTTTCTTTGGTGTCAATTTGACTGCAAGAAAAGAAGAGAAGAGCACTCCCGAAACAAACAGTTACATCTGCAAGTTTCTAGACAAAACACCATGGAAACCAACCTTAACTGGAGTCTTCGCCGGGGCGCTTTTTTATCCTCGTTACAAATGGATTGATCGAGTGATGATTCAGCTTATCATGAAGATGACTAAAGGAGAAACCGATCCGACAAAAGAGATTGAGTATACAGATTGGAACAAGGTTTCGGAGTTTGCTACGAATTTTGCAAAGATTGGCTGA	24	0	0	0	20	4	0	0	24	0	0	0	2	22	0	0	24	0	0	0	The grade of pesticide damage/plant: grade 0 ([3]; flumioxazin 240 g ai/ha (4×)): 24 plant; The grade of pesticide damage/plant: grade 1 ([3]; flumioxazin 240 g ai/ha (4×)): 0 plant; The grade of pesticide damage/plant: grade 2 ([3]; flumioxazin 240 g ai/ha (4×)): 0 plant; The grade of pesticide damage/plant: grade 3 ([3]; flumioxazin 240 g ai/ha (4×)): 0 plant; The grade of pesticide damage/plant: grade 0 ([4]; oxyfluorfen 180 g ai/ha (1×)): 24 plant; The grade of pesticide damage/plant: grade 1 ([4]; oxyfluorfen 180 g ai/ha (1×)): 0 plant; The grade of pesticide damage/plant: grade 2 ([4]; oxyfluorfen 180 g ai/ha (1×)): 0 plant; The grade of pesticide damage/plant: grade 3 ([4]; oxyfluorfen 180 g ai/ha (1×)): 0 plant; The grade of pesticide damage/plant: grade 0 ([4]; oxyfluorfen 720 g ai/ha (4×)): 20 plant; The grade of pesticide damage/plant: grade 1 ([4]; oxyfluorfen 720 g ai/ha (4×)): 4 plant; The grade of pesticide damage/plant: grade 2 ([4]; oxyfluorfen 720 g ai/ha (4×)): 0 plant; The grade of pesticide damage/plant: grade 3 ([4]; oxyfluorfen 720 g ai/ha (4×)): 0 plant
PPO2A: nucleotide sequence encoding microbial protoporphyrinogen oxidase PPO2 (SEQ ID NO:2), Arabidopsis thaliana/soybean common codon usage bias (nucleic acid, PPO2A Nucleotide Sequence) DNA: ATGAGAGCCTTGCTTCTCTACAGCAGTCAAGAAGGGCAGACAAGAAAAATCATTCAGAGAATAGCAGCTCAAATGCCTGAGTACACTTGTGAAGTTCAAGATTTGCATCAATCAATAGATATTGATTGGGCCGAGTATGACAAAGTTTTAATTGGTGCATCCATCCGGTATGGACGTTTGAACCCTGCACTTTACAGGTTCATTGAGCATCACCTCGTTGGTTTGACCTCAAGGAAGGCTGCTTTCTTCTGCGTAAATCTTACCGCAAGGAAAGAACAACAAGGGAAAGACACTCCACAGGGCTCTGCATATATTCAAACATTTTTGAAGAAGAGTGCTTGGCAACCCGAAAGGATTGCTGTTTTTGCTGGTGCCCTTTATTATCCAAGATACAGATGGTTTGATAAGATGATGATCCGACTCATCATGACGTTAACTGGAGGAGAAACTGATACATCTCAGGAGGTGGAATATACAAACTGGGATAAAGTCGTGAAGTTTGCAGAGCAGTTTCGGAATTGGTGA	24	0	0	0	20	4	0	0	24	0	0	0	6	18	0	0	24	0	0	0	The grade of pesticide damage/plant: grade 0 ([3]; flumioxazin 240 g ai/ha (4×)): 24 plant; The grade of pesticide damage/plant: grade 1 ([3]; flumioxazin 240 g ai/ha (4×)): 0 plant; The grade of pesticide damage/plant: grade 2 ([3]; flumioxazin 240 g ai/ha (4×)): 0 plant; The grade of pesticide damage/plant: grade 3 ([3]; flumioxazin 240 g ai/ha (4×)): 0 plant; The grade of pesticide damage/plant: grade 0 ([4]; oxyfluorfen 180 g ai/ha (1×)): 24 plant; The grade of pesticide damage/plant: grade 1 ([4]; oxyfluorfen 180 g ai/ha (1×)): 0 plant; The grade of pesticide damage/plant: grade 2 ([4]; oxyfluorfen 180 g ai/ha (1×)): 0 plant; The grade of pesticide damage/plant: grade 3 ([4]; oxyfluorfen 180 g ai/ha (1×)): 0 plant; The grade of pesticide damage/plant: grade 0 ([4]; oxyfluorfen 720 g ai/ha (4×)): 20 plant; The grade of pesticide damage/plant: grade 1 ([4]; oxyfluorfen 720 g ai/ha (4×)): 4 plant; The grade of pesticide damage/plant: grade 2 ([4]; oxyfluorfen 720 g ai/ha (4×)): 0 plant; The grade of pesticide damage/plant: grade 3 ([4]; oxyfluorfen 720 g ai/ha (4×)): 0 plant
